Measured values from patent US20240287202A1 (XYPHOS BIOSCIENCES, published 2024).

Tests used:
[1] = target: T1, A1-A2 domain of human MICB with C-terminal 6x-His tag (monomer) (human, UniProt Q29980 24-205); test: Octet BLI, response against concentration (legend: monomeric ligands; axis on the sheet: nM Fc-iNKG2D.AF)
T1 construct: range 24-205; also called MIC-His ligand
T1 sequence: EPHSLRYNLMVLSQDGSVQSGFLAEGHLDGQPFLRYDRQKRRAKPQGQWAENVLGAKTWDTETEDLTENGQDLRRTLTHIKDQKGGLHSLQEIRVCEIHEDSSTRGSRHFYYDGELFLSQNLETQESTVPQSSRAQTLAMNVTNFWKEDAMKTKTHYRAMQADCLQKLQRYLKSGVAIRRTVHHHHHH

[2] = target: T2, A1-A2 domain of human ULBP3 with C-terminal 6x-His tag (monomer) (human, UniProt Q9BZM4 30-212); test: Octet BLI, Fc-iNKG2D.AF on AHC tips, monomeric ligand (FIG. 3A)
T2 construct: range 30-212; also called MIC-His ligand
T2 sequence: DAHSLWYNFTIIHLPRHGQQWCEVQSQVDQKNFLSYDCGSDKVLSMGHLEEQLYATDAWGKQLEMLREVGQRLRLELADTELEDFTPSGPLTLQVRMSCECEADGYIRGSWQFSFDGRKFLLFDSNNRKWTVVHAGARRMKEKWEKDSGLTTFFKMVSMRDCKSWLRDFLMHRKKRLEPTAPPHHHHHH
Excerpt: (§1) Library design and phage panning performed was as described for iNKG2D. […] Data are representative of two experiments. […] Error bars represent ±SD of technical replicates.

[3] = target: T3, A1-A2 domain of human MICA*001 with C-terminal 6x-His tag (monomer) (human, UniProt Q29983 24-205); test: as above
T3 construct: range 24-205; also called MIC-His ligand
T3 sequence: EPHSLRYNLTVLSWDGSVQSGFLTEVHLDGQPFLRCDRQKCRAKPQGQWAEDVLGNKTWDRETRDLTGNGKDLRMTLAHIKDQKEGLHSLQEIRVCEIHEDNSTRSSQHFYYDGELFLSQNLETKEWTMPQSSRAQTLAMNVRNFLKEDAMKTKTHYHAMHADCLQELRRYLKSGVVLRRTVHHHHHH
Excerpt: as §1

binding result [1]: binds
binding result [2]: no binding
binding result [3]: no binding
B1: Fc-iNKG2D.AF (NKG2D ectodomain Y152A/Y199F fused to the C-terminus of human IgG1 Fc) (Fc fusion)
chain: IEGRFLNSLFNQEVQIPLTESYCGPCPKNWICYKNNCYQFFDESKNWYESQASCMSQNASLLKVYSKEDQDLLKLVKSAHWMGLVHIPTNGSWQWEDGSILSPNLLTIIEMQKGDCALYASSFKGFIENCSTPNTYICMQRTV
notes: range 78-216; also called Fc-NKG2D.AF; not shown: human IgG1 Fc
